Experimental data taken from the DeepSol protein solubility set.

experiment: soluble on expression in E. coli; label from the status in PepcDB or PDB records

Row | Sequence | soluble on expression in E. coli
1 | MERTVKLRVKVDYSTYSALKEVEKEYREVLEDAINYGLSNKTTSFTRIKAGVYKTEREKHKDLPSHYIYTACEDASERLDSFEKLKKRGRSYTEKPSVRRVTIHLDDHLWKFNLDTISISTKRSRILISPTFPKIFWRYYNTEWRIASEARFRLMKGNVVEFYVIFKRDEPKPYEPKAFIPVDLNENSVSVLINSKPLLLETNTKKITLGYEYRRKAITTGKSTKDREVRRKLKRLRERNKKVDIRRKLAKLIVKEAFESRSAIVLEDLPRRTPEHMIKDVKDKQLRLRIYRSAFSSMKNAIIEKAREFGVPVVLVNPSYTSTVCPIHGANIVYQLDGGDAPRVGVCEKGKEKWHRDVVALYNLARRAGDVSPVPLGSKESHDPPTLSGWLRAKSLHSIMNEHKMIEMKVLEHHHHHH | soluble
2 | MAHHHHHHMSTYANSQARLNRVAPQLRPAGVHGDWTEATMAELLSSYNPNGIITPDHIRSFHHRGCDVGEQRRHWGLAKDAPVDPNMRHGVKGKETGGADACLRPEMYADKMTALLDAQLESQYLSNRRKPLGHAPVPRDPVPVPFGGFGITQKKGDSTQSVLAGYRSVDVLHPAGEQLTRNYDWEKAGIDPTQHRFGKPSARSDGTTAAALFNDSATQLTSKLAKDYETTVAKELGKSKRYGFDDPAEWDEEKRGSVTKFGATGTAASYFQTEQPTVRELLSSWAQTASGPRADKAASGKAGQQGLTGSADSAVTAKADASAAAPVASGPSLTEPLKDEARAHQLLYPCHYVSLGVESKYFAGGRPLEDIRRLCHKCSFGLSDADIDAVFVLVAKGGSTCSIEEFKNAARARGYM | not soluble
3 | MGSDKIHHHHHHMTKFSVYIGIDWANDKHDVCVQVANSSARKFEVIKHSPKSINEWITSLHKQYKGQIAVAIELSKGPIVYALQKFDFITIHPVNTSMLAQYRKAFSPSGAKDDPTDAELALDLMLRYPNKIKALKMDSESVRKLTYLVEQRRKLVDDKRRFSNRLIITLKEYYPHLLDWFSHRGSGIFCDFITRWPNLQKLKRARADTLKKFFGSYPGRTAAYSVKRIQSISEAEPLTLDNAVIESHQLLAVALANQLLVAVKVIKVFDREISELFNALPDAELYKSLPGTGPCLAPRLLVAIGENRSRFNSASEIQMYAVIAPVTVRSGQKSWIHWRYQCSKFTRQSFIEWATKSIRQSYWAEIYYQQQREKGNTHQAAVRSLAFKWIRIIYRCWKTKEPYNEAKYLKALSDRNSPLLFKEKAC | not soluble
4 | MGSDKIHHHHHHMKLDDCQLLIHVHKAGTMRGAARSLHLSQPAISQRLKQMEDLWGGAIFIRTHKKLLLTPLGEKVLTFAQETLWRTERLREELEQMKGSVSGRLSLGISSVVSHYLIPPLLEKYTKAYPRVNIELISTTSDQIRRTFSSYHVAIFRGDRLPEQASHLLLADPLYLVFDKDIPIEKRPLIQWKSDPSLEALIQAWMRSVTSFTFRGHVSVDQIETCKQLMLRGVGAAILPEMAIKDVSDQCFHKLPLQLDNQPLERQTWVLYEEEALSLPQVEAFLQLLPLK | not soluble
5 | GPGSMFHRTTPEEEVRKWTRSLRSEQRKIELQITKIRREEAKVKLSMKQAAKQNDQVVMRMLAKEMIRSRKAVNRMYASKAQMNSVSMQLQNQASQMKMSGSLKKSGEIMKEMNSLVKVKEVQQSMMAMSKEMVKAGLIDEIMNDTIDEALDDDISDTELEDEVNKVVMDVVQGQMDGARVGASRIPAQQQQQQETAEEEEDELMEKLNALRNS | soluble
6 | MSSSEGNSDASAPGTPVKSSTPSSRGSSPDSPKKQEPSKKRAILNESDDDDDSRPAPRQLSDSSDDNIHPRGGGEKSSPGAGGGLFGDLSGSSDDDSDREGKPKESNTRARLSDSDAESRGSLNDLQGIVMANPDEIDEDEKAKEHVHDTEMVTGRVTLEYAADPPHFVRMPNFLSVATHPFDPQHYEEDEDDEQAKLDDEGRTRLKLRVENTLRWRVRKDENGKEIRESNAKIVKWDDGTMSLYLGNEIFEVSLVPLNSNNLPHLYVKQPTLMSAQAVLTHRMTFRPHSTDSQTHRKVTLNMADRSRKNAQVKVMDDVGQNPEITRRENARKEEESLRAHIRRTQMVRNNFKVRGPRYAGQYSDDEDMPTSSRKGKKKEAPIIGASSESEDDHADTTKKSGSDSDSDEEYRKRKQQQKKQIVTSDEESD | not soluble
7 | MSSVPQSKQELELAIHSVFPKLMADYRSIPAQMSRVCSIDGNIQGTQISVCDTVAYLIGWGKLVLKWYELTSQTLPVDFPDTGYKWNQLELLADRFHQEYHQWQYSDLLNEYELTMAKLLTLIASLSVQQLYGIAWYDKWTLGRMIQFNTYSPMKNMRTKVRRFKKDNALKLEHHHHHH | not soluble
8 | MLRHHSCALLMLILVFVEVFATQSPTFDRQDRDYRPLQFGKRDGYRPLQFGKRDYRPLQFGKRSSGSSGPVVLEPIWEWQ | soluble
9 | MGSDKIHHHHHHMFVLKNVKYKDILNIEELHIPARKITVITGKSGTGKTTLLKMLNKLISPDSGEIFFKGTPLTEIDSVELRRKVVMLPQFPVVFPGNVKENLLMGLKFSGKKIPHDEELRKILKFVMLEKDLNDDPEKFSGGEKQRLALARVLLMDPEVLLLDEPTSSLDEKTGIEIIKKVSNFAKSRGKTLVMVTHNPELRKFADVLIELKNGRVL | not soluble
10 | MGSDKIHHHHHHMRVAMWSGPRNLSTAMMYAFGNRPDCEAWDEPFYAAYLAQTGLDHPMRQTVLASQPPHYGAVVERLLATPTQPVQYLKLMTHHMLPDTSLTWATGFANIHLIRHPARVIASYTAKRAEITLDDIGFPQAARLHTALPGPIIDSADIRAAPEAMLRSLCEAIDLPFDPAMLHWPAGPKPFDGAWAPHWYDAVHRSTGFAAAEGHLPEVPDHHRGLLKDALDIYETLHQSRLRP | not soluble
11 | GQDTGEDNLAIKGITTLNDLTMVNVSGPGMKGMVGMASRVFGAMSSAGVSIVLITQSSSEYSISFCIEADDKLKAQQVLADAFELELKDGLLEPVDFIDDVSIVTLVGDGMRTSRGVASRFFSSLAEVNVNIVAIAQGSSERAISAVIPEDKISEAIKACHENLFNSKYF | not soluble
12 | MQFPSSYWIESTQLPTFPPLSENIKTKVAVIGAGITGITTAYLLAKEGIDVVLIDSGLILNGTTGHTTAKITAQHDLIYDELINHFGMEKAGLYYESNNHALQFINETVQTYKIDCNFSNEDSYLYTTTDKGLRNLSKEYEAYQKLNIPCDYVQSLSIPIPVQSALVMKNQAQFHPLLYLKTLLAKFVEMGGKVYEQTTAMDVEKGDSPQIITKEGHRITCEYVVSCSHFPLEHHHHHH | not soluble
13 | MELGLAGKTALVAASSQGLGKAIARALVLEGTNVMITSRNEEKLHEVAEELNSLHKGRVAYTRTDVTNADDIRQLVAKTVETFGTIDLLVNNAGGPPAGTFETVSDEDWQYAFELNLLSYIRLIREALPYLKKKGGKIVNIASSSIKEPIPGLILSNTFRTGIVGLTKTLAVELAPDGILINTVAPGRIATERVAFLDKVNAEKLGITKEEMEARMKSAIPLGRYGTPEEFANVVVFLLSEANSYVTGQALIVDGGMVKAI | soluble
14 | MDLSELERDNTGRCRLSSPVPAVCLKEPCVLGVDEAGRGPVLGPMVYAICYCPLSRLADLEALKVADSKTLTENERERLFAKMEEDGDFVGWALDVLSPNLISTSMLGRVKYNLNSLSHDTAAGLIQYALDQNVNVTQVFVDTVGMPETYQARLQQHFPGIEVTVKAKADSLFPVVSAASIFAKVARDKAVKNWQFVENLQDLDSDYGSGYPNDPKTKAWLRKHVDPVFGFPQFVRFSWSTAQAILEKEAEDVIWEDSEAEEDPERPGKITSYFSQGPQTCRPQAPHRYFQERGLEAASSL | soluble
15 | MGSDKIHHHHHHMVKVLILGQGYVASTFVAGLEKLRKGEIEPYGVPLARELPIGFEDIKIVGSYDVDRAKIGKKLSEVVKQYWNDVDSLTSDPEIRKGVHLGSVRNLPIEAEGLEDSMTLKEAVDTLVKEWTELDPDVIVNTCTTEAFVPFGNKEDLLKAIENNDKERLTATQVYAYAAALYANKRGGAAFVNVIPTFIANDPAFVELAKENNLVVFGDDGATGATPFTADVLSHLAQRNRYVKDVAQFNIGGNMDFLALTDDGKNKSKEFTKSSIVKDILGYDAPHYIKPTGYLEPLGDKKFIAIHIEYVSFNGATDELMINGRINDSPALGGLLVDLVRLGKIALDRKEFGTVYPVNAFYMKNPGPAEEKNIPRIIAYEKMRIWAGLKPKWL | soluble
